Data set [1] has as its system HeLa Kyoto. Put plainly: solubility in G1/S (NP-40 vs SDS abundance) (log2 ratio); higher = more soluble. The following applies: cell cycle stage: G1/S.
Data set [2] deals with HeLa Kyoto. Put plainly: melting temperature (median over replicates), in situ; higher = more thermally stable.
Data set [3] deals with HeLa Kyoto. The data set is described as follows: solubility change mitosis vs G1/S (difference of NP-40 vs SDS log2 ratios) (log2 ratio difference); higher = more soluble in mitosis.
Data set [4] concerns HeLa Kyoto. Put plainly: thermal stability score vs G1/S (z-score of summed log2 fold changes over temperatures); higher = more thermally stable than in G1/S.
[5] abbreviates: cell cycle stage: early G1 (4.5 h after nocodazole release).
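Wherever melting temperature (median over replicates), in situ is given: HeLa Kyoto cells synchronized by double thymidine or nocodazole block, proteins quantified by TMT10plex mass spectrometry, three independent biological replicates.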
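Wherever solubility change mitosis vs G1/S (difference of NP-40 vs SDS log2 ratios) is given: synchronized HeLa Kyoto cells (double thymidine block for G1/S, nocodazole release for mitosis), protein amounts in NP-40 versus SDS lysates quantified by mass spectrometry, three biological replicates.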
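Wherever solubility in G1/S (NP-40 vs SDS abundance) is given: HeLa Kyoto cells arrested at G1/S by double thymidine block, proteins quantified by TMT10plex mass spectrometry in mild NP-40 versus SDS extracts, three biological replicates.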
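Wherever thermal stability score vs G1/S (z-score of summed log2 fold changes over temperatures) is given: synchronized HeLa Kyoto cells, proteins quantified by TMT10plex mass spectrometry, three biological replicates, mitosis taken 0.5 h after nocodazole release, G1/S directly after double thymidine block.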

As for “MALKQEMAKSLLKTASLSGRTKLLHQTGLSLYSTSHGFYEEEVKKTLQQFPGGSIDLQKEDNGIGILTLNNPSRMNAFSGVMMLQLLEKVIELENWTEGKGLIVRGAKNTFSSGSDLNAVKSLGTPEDGMAVCMFMQNTLTRFMRLPLISVALVQGWALGGGAEFTTACDFRLMTPESKIRFVHKEMGIIPSWGGTTRLVEIIGSRQALKVLSGALKLDSKNALNIGMVEEVLQSSDETKSLEEAQEWLKQFIQGPPEVIRALKKSVCSGRELYLEEALQNERDLLGTVWGGPANLEAIAKKGKFNK [ECHDC1]”, the “solubility in G1/S (log2)” value in data set [1] amounted to 0.284. The melting temperature in data set [2] (cell cycle stage: G1/S) amounted to 56.5 °C; in data set [2] (cell cycle stage: mitosis), 58.1 °C. The “solubility change mitosis (log2)” value in data set [3] was -0.0468. Also, the thermal stability score in data set [4] (setting [5]) was -1.01; in data set [4] (cell cycle stage: mitosis) it was -1.18.

With “MALLCLDGVFLSSAENDFVHRIQEELDRFLLQKQLSKVLLFPPLSSRLRYLIHRTAENFDLLSSFSVGEGWKRRTVICHQDIRVPSSDGLSGPCRAPASCPSRYHGPRPISNQGAAAVPRGARAGRWYRGRKPDQPLYVPRVLRRQEEWGLTSTSVLKREAPAGRDPEEPGDVGAGDPNSDQGLPVLMTQGTEDLKGPGQRCENEPLLDPVGPEPLGPESQSGKGDMVEMATRFGSTLQLDLEKGKESLLEKRLVAEEEEDEEEVEEDGPSSCSEDDYSELLQEITDNLTKKEIQIEKIHLDTSSFVEELPGEKDLAHVVEIYDFEPALKTEDLLATFSEFQEKGFRIQWVDDTHALGIFPCLASAAEALTREFSVLKIRPLTQGTKQSKLKALQRPKLLRLVKERPQTNATVARRLVARALGLQHKKKERPAVRGPLPP [R3HCC1]”, the “solubility in G1/S (log2)” value in data set [1] is -0.047. The melting temperature in data set [2] (cell cycle stage: mitosis) came out at 51.1 °C. Further, in data set [3], the “solubility change mitosis (log2)” value is -0.0167. Besides, the thermal stability score is -0.563 in data set [4] (setting [5]) and -0.284 in data set [4] (cell cycle stage: mitosis).

As to “MALLCYNRGCGQRFDPETNSDDACTYHPGVPVFHDALKGWSCCKRRTTDFSDFLSIVGCTKGRHNSEKPPEPVKPEVKTTEKKELCELKPKFQEHIIQAPKPVEAIKRPSPDEPMTNLELKISASLKQALDKLKLSSGNEENKKEEDNDEIKIGTSCKNGGCSKTYQGLESLEEVCVYHSGVPIFHEGMKYWSCCRRKTSDFNTFLAQEGCTKGKHMWTKKDAGKKVVPCRHDWHQTGGEVTISVYAKNSLPELSRVEANSTLLNVHIVFEGEKEFDQNVKLWGVIDVKRSYVTMTATKIEITMRKAEPMQWASLELPAAKKQEKQKDATTD [CHORDC1]”, in data set [1], the “solubility in G1/S (log2)” value worked out at 0.0558. The melting temperature came out at 52 °C in data set [2] (cell cycle stage: G1/S) and 52.4 °C in data set [2] (cell cycle stage: mitosis). In data set [3], the “solubility change mitosis (log2)” value is -0.122. The thermal stability score in data set [4] (setting [5]) was -0.00128; in data set [4] (cell cycle stage: mitosis) it was 0.22.

Turning to “MALLHSGRVLPGIAAAFHPGLAAAASARASSWWTHVEMGPPDPILGVTEAFKRDTNSKKMNLGVGAYRDDNGKPYVLPSVRKAEAQIAAKNLDKEYLPIGGLAEFCKASAELALGENSEVLKSGRFVTVQTISGTGALRIGASFLQRFFKFSRDVFLPKPTWGNHTPIFRDAGMQLQGYRYYDPKTCGFDFTGAVEDISKIPEQSVLLLHACAHNPTGVDPRPEQWKEIATVVKKRNLFAFFDMAYQGFASGDGDKDAWAVRHFIEQGINVCLCQSYAKNMGLYGERVGAFTMVCKDADEAKRVESQLKILIRPMYSNPPLNGARIAAAILNTPDLRKQWLQEVKVMADRIIGMRTQLVSNLKKEGSTHNWQHITDQIGMFCFTGLKPEQVERLIKEFSIYMTKDGRISVAGVTSSNVGYLAHAIHQVTK [GOT2]”, the “solubility in G1/S (log2)” value in data set [1] worked out at 0.165. Also, the melting temperature in data set [2] (cell cycle stage: G1/S) turned out to be 59.4 °C; in data set [2] (cell cycle stage: mitosis), 58.8 °C. Further, the “solubility change mitosis (log2)” value in data set [3] is -0.0966. Further, the thermal stability score in data set [4] (setting [5]) was -1.18; in data set [4] (cell cycle stage: mitosis) it was -2.25.

Consider “MALLPRALSAGAGPSWRRAARAFRGFLLLLPEPAALTRALSRAMACRQEPQPQGPPPAAGAVASYDYLVIGGGSGGLASARRAAELGARAAVVESHKLGGTCVNVGCVPKKVMWNTAVHSEFMHDHADYGFPSCEGKFNWRVIKEKRDAYVSRLNAIYQNNLTKSHIEIIRGHAAFTSDPKPTIEVSGKKYTAPHILIATGGMPSTPHESQIPGASLGITSDGFFQLEELPGRSVIVGAGYIAVEMAGILSALGSKTSLMIRHDKVLRSFDSMISTNCTEELENAGVEVLKFSQVKEVKKTLSGLEVSMVTAVPGRLPVMTMIPDVDCLLWAIGRVPNTKDLSLNKLGIQTDDKGHIIVDEFQNTNVKGIYAVGDVCGKALLTPVAIAAGRKLAHRLFEYKEDSKLDYNNIPTVVFSHPPIGTVGLTEDEAIHKYGIENVKTYSTSFTPMYHAVTKRKTKCVMKMVCANKEEKVVGIHMQGLGCDEMLQGFAVAVKMGATKADFDNTVAIHPTSSEELVTLR [GSR]”, for which the “solubility in G1/S (log2)” value in data set [1] amounted to 0.127. The figures for the melting temperature in data set [2] (cell cycle stage: G1/S) and in data set [2] (cell cycle stage: mitosis) were 58.8 °C and 59.7 °C, respectively. For the same sequence, in data set [3], the “solubility change mitosis (log2)” value was -0.09. In addition, the figures for the thermal stability score in data set [4] (setting [5]) and in data set [4] (cell cycle stage: mitosis) were -1.7 and -2.29, respectively.

Turning to “MALLSEGLDEVPAACLSPCGPPNPTELFSESRRLALEELVAGGPEAFAAFLRRERLARFLNPDEVHAILRAAERPGEEGAAAAAAAEDSFGSSHDCSSGTYFPEQSDLEPPLLELGWPAFYQGAYRGATRVETHFQPRGAGEGGPYGCKDALRQQLRSAREVIAVVMDVFTDIDIFRDLQEICRKQGVAVYILLDQALLSQFLDMCMDLKVHPEQEKLMTVRTITGNIYYARSGTKIIGKVHEKFTLIDGIRVATGSYSFTWTDGKLNSSNLVILSGQVVEHFDLEFRILYAQSKPISPKLLSHFQSSNKFDHLTNRKPQSKELTLGNLLRMRLARLSSTPRKADLDPEMPAEGKAERKPHDCESSTVSEEDYFSSHRDELQSRKAIDAATQTEPGEEMPGLSVSEVGTQTSITTACAGTQTAVITRIASSQTTIWSRSTTTQTDMDENILFPRGTQSTEGSPVSKMSVSRSSSLKSSSSVSSQGSVASSTGSPASIRTTDFHNPGYPKYLGTPHLELYLSDSLRNLNKERQFHFAGIRSRLNHMLAMLSRRTLFTENHLGLHSGNFSRVNLLAVRDVALYPSYQ [FAM83D]”, the “solubility in G1/S (log2)” value in data set [1] was -0.213. The melting temperature in data set [2] (cell cycle stage: G1/S) worked out at 49.8 °C; in data set [2] (cell cycle stage: mitosis), 49.4 °C. In addition, the “solubility change mitosis (log2)” value in data set [3] is -0.133. Moreover, the figures for the thermal stability score in data set [4] (setting [5]) and in data set [4] (cell cycle stage: mitosis) were 0.13 and -0.391, respectively.

Source of the values: the supplement of paper PMC5998384.
